Data on one molecule can be found in US7067474B1, “Agents for treating human illnesses based on β-catenin, and the production and use thereof” (Max-Delbruck-Centrum fur Molekulare Medizin, priority 1998, dated 2006).

The assay deals with T1, human β-catenin (armadillo repeat 3 up to the C-terminal end, Leu218-Leu781) fused to the activation domain … (human, UniProt P04386 768-881; P35222 218-781).
T1 construct: Order of the fusion follows the vector; also called wild type β-catenin
T1 sequence (looked up): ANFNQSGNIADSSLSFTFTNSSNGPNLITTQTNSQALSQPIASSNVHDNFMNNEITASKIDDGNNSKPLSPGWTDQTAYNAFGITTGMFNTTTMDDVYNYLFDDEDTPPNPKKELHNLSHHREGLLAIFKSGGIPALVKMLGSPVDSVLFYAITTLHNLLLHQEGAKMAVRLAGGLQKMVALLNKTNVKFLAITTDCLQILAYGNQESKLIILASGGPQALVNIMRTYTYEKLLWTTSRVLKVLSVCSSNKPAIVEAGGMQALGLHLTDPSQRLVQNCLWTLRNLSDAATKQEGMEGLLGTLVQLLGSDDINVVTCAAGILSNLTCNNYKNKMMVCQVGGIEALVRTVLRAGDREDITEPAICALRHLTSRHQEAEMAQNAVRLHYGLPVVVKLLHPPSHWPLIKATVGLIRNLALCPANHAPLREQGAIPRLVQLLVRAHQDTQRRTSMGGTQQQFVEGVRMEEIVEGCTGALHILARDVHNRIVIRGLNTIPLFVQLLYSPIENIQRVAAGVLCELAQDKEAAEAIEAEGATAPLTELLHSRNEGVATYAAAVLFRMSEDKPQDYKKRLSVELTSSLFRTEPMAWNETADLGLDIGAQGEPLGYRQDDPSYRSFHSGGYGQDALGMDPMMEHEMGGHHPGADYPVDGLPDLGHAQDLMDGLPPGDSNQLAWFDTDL
The assay is described as follows: yeast 2-hybrid; wild type is the 100% reference of Table 2. The procedure: 4. Preparation and testing of mutants of β-catenin modulating the interaction with LEF-1, APC, conductin or E-cadherin The mutagenesis of β-catenin in the armadillo repeats 3–8 was carried out by means of the "mutagenesis kit" of the company Clontech according to the producer's record and the mutants were checked by sequencing (FIG. 5). In all mutants the original amino acid was substituted by alanine. For analyzing the interactions the cDNA of human β-catenin (armadillo repeat 3 up to the C-terminal end of the protein) coding for the amino acids Leu218–Leu7 µl or its mutants was cloned into the fusion vector for the activation domain of Gal-4 (pGAD424, Clontech). The cDNA for the binding domains of the interaction partners was cloned into the Lex-A fusion vector BTM 116. To this end, the cDNA of LEF-1 for the amino acids 1–99, conductin for the amino acids Ala342–ARG465; of human APC for the amino acids His1012–Glu1215 (APC 15 amino acid repeats) and for the amino acids Ser1259Asp 1400 (APC 20 amino acid repeats) and E-cadherin for the amino acids Gin773–Asp884 (cytoplasmatic domain) were amplified with the respective primers PCR. The interaction of the Lex-A hybrids with β-catenin and its mutants was quantified by means of the β-galactosidase reporter activity in the yeast 2-hybrid system (report: "Matchmaker". Clontech) (Tab. 2 and FIG. 6).

B1: LEF-1 amino acids 1-99 fused to Lex-A (vector BTM 116) (other, UniProt P0A7C2 1-202, looked up)
chain: MKALTARQQEVFDLIRDHISQTGMPPTRAEIAQRLGFRSPNAAEEHLKALARKGVIEIVSGASRGIRLLQEEEEGLPLVGRVAAGEPLLAQQHIEGHYQVDPSLFKPNADFLLRVSGMSMKDIGIMDGDLLAVHKTQDVRNGQVVVARIDDEVTVKRLKKQGNKVELLPENSEFKPIVVDLRQQSFTIEGLAVGVIRNGDWLMPQLSGGGGGGDPELCATDEMIPFKDEGDPQKEKIFAEISHPEEEGDLADIKSSLVNESEIIPASNGHEVVRQAPSSQEPYHDKAREHPDEGKHPDGGL
notes: Order of the fusion follows the vector; also called LEF-1/TCF-4
For the molecule B1, the binding result is given as “binds”.
